Experimental data from US12384811B2, “Sialidase-resistant saccharide and method of making and using the same” (Academia Sinica, priority 2019, dated 2025).

Columns and labels:
[1] = system: sialidase from Clostridium perfringens; type: biochemical; settings: C. perfringens sialidase, 37° C., pH 5.0, substrate 0-20 mM, β-galactosidase, A405 nm (FIG. 1A)
[2] = target: T1, sialidase from Vibrio cholerae (Vibrio cholerae serotype O1, UniProt P0C6E9); type: biochemical; settings: pH 5.5
T1 construct: purchased Sigma Aldrich 11080725001
T1 sequence (P0C6E9 25-781): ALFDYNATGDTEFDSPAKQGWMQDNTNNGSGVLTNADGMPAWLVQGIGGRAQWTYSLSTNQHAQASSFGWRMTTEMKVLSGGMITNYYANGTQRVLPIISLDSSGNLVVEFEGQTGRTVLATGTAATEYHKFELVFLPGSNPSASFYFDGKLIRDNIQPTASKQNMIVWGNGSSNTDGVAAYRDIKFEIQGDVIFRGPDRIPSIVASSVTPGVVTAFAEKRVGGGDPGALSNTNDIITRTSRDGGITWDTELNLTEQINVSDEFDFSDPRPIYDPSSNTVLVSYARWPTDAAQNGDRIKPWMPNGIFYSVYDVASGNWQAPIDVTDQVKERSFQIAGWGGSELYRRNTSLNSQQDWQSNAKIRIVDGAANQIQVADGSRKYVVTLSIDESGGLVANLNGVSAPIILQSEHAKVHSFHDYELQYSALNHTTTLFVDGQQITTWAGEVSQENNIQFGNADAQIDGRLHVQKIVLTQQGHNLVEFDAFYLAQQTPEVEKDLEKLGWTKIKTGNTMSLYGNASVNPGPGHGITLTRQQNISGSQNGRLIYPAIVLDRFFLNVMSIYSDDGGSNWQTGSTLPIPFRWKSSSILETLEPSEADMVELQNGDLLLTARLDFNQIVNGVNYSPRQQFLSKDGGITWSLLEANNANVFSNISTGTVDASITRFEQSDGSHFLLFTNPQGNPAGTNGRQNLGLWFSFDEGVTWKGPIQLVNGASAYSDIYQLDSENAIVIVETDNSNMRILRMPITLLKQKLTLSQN

[3] = system: sialidase from Clostridium perfringens; type: biochemical; settings: C. perfringens sialidase, substrate Neu5Ac-α2,6-GalβpNP 0.6 mM, inhibitor 0-20 mM (FIG. 1B)
[4] = target: T1, sialidase from Vibrio cholerae; type: biochemical
FcγRIIIa = target: T2, FcγRIIIa (Homo sapiens, UniProt P08637); assay: Surface plasmon resonance (SPR) analysis of binding avidity of glycoengineered Rituximab IgG1; settings: for improvement in binding avidity to FcγRIIIa compared to the commercial sample of rituximab / Rmax / Kd / ka / kd: SPR; for Rmax / Kd / ka / kd: BIACORE T200, 25° C.; for Kd / ka / kd: single cycle kinetic, 1:1 Langmuir model; for Fold: binding avidity relative to commercial Rituximab
T2 construct: made in house; host or cells: HEK-293
T2 sequence (P08637 17-254): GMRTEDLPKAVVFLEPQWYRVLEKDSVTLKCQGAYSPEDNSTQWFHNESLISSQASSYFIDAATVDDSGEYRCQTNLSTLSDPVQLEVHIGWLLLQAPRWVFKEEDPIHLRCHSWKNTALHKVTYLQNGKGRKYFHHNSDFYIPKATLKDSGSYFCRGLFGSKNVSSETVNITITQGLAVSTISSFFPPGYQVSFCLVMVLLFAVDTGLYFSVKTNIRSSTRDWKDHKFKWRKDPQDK
Experimental: All the SPR experiments were performed with the single cycle kinetic method by BIACORE T200 at 25° C. using HBS-EP (10 mM HEPES pH7.4, 0.15M NaCl, 3mMEDTA, 0.005% surfactant P20) as running buffer. FcγRIIIa was transfected into HEK-293 cells to express the complex-type glycosylated recombinant protein as analyte. For the analysis of Rituximabs binding to FcγRIIIa receptor, antihuman Fab antibodies in human Fab capture kit (GE Healthcare) were immobilized onto both the reference and active channels of CM5 sensor chip, and then Rituximabs were captured on the active channel for interacting with the serial dilutions of FcγRIIIa analyte (2.5, 5, 10, 20, 40 nM for 2,6-FluoSCT and 2,6-SCT; 8, 24, 72, 216, 648 nM for the commercial Rituximabs) at 30 μl/min for association of 240 seconds followed by dissociation time of 420 seconds. Rituximab data were processed with double referencing for background subtraction. Data of Rituximabs was fitted to 1:1 Langmuir binding model in BiaEvaluation software (GE Healthcare) to obtain the kinetic/affinity constants (Table 4). Analyzed antibodies were captured by the Human Fab capture kit and detected with the single cycle kinetic method.

p-Nitrophenyl [methyl 5-acetamido-3,5-dideoxy-3-fluoro-D-erythro-α-L-manno-non-2-ulopyranosonate]-(2→6)-β-D-galactopyranoside [Compound 2]
hydrolytic activity of the sialidase toward the substrate [1]: inactive | hydrolytic activity of the sialidase toward the substrate [2]: inactive | inhibition of the hydrolysis of 1 [3]: did not significantly inhibit | inhibition of the hydrolysis of 1 [4]: did not significantly inhibit

2,6-F^axSCT: homogeneous rituximab IgG1 glycoform without core fucose bearing the 3F^ax-Neu5Ac-terminated α2,6-sialylated biantennary N-glycan
improvement in binding avidity to FcγRIIIa compared to the commercial sample of rituximab (FcγRIIIa): 37.4 fold | Rmax (FcγRIIIa): 71.28 RU | Kd (FcγRIIIa): 8.18 nM | ka (FcγRIIIa): 244000 M⁻¹ s⁻¹ | kd (FcγRIIIa): 0.001996 s⁻¹ | Fold (FcγRIIIa): 37.4-fold

2,6-SCT: parent nonfluorinated homogeneous rituximab glycoform (G2S2), α2,6-sialylated biantennary N-glycan without core fucose
improvement in binding avidity to FcγRIIIa compared to the commercial sample of rituximab (FcγRIIIa): 39.9 fold | Rmax (FcγRIIIa): 60.64 RU | Kd (FcγRIIIa): 7.67 nM | ka (FcγRIIIa): 268000 M⁻¹ s⁻¹ | kd (FcγRIIIa): 0.002059 s⁻¹ | Fold (FcγRIIIa): 39.9-fold

Rituximab: commercial sample of rituximab (Rituxan, Roche; major glycoforms: G1F1, G0F1, G2F1)
Rmax (FcγRIIIa): 32.33 RU | Kd (FcγRIIIa): 306 nM | ka (FcγRIIIa): 231000 M⁻¹ s⁻¹ | kd (FcγRIIIa): 0.07054 s⁻¹ | Fold (FcγRIIIa): 1-fold

CC(=O)N[C@H]1[C@H]([C@H](O)[C@H](O)CO)OC(C(=O)O)=C[C@@H]1O [DANA, 2-deoxy-2,3-didehydro-N-acetylneuraminic acid]
inhibition of the hydrolysis of 1 [3]: inhibit the hydrolysis of 1 | inhibition of the hydrolysis of 1 [4]: inhibit the hydrolysis of 1

CC(=O)N[C@H]1[C@H]([C@H](O)[C@H](O)CO)OC(OC[C@H]2O[C@@H](Oc3ccc([N+](=O)[O-])cc3)[C@H](O)[C@@H](O)[C@H]2O)(C(=O)O)C[C@@H]1O (stereo partly drawn) [Compound 1, p-Nitrophenyl [5-acetamido-5-deoxy-D-glycero-α-D-galacto-non-2-ulopyranosylonate]-(2→6)-β-D-galactopyranoside]
hydrolytic activity of the sialidase toward the substrate [2]: expected hydrolytic activity
